# Test results published in patent publication US20240018501A1, “HIGHER PERFORMANCE PROTEASES FOR SCARLESS PEPTIDE TAG REMOVAL” (priority 2017, published 2024).
# Ends that are not written are not given here.
# T1: Pyr-AAIV
# T1 sequence: AAIV
# T2: Pyr-AAI
# T2 sequence: AAI
# T3: OBu-AGPAIR
# T3 sequence: AGPAIR
# T4: Pyr-AA
# T4 sequence: AA
# T5: Pyr-APVLA
# T5 sequence: APVLA
# T6: Pyr-LGPAIK
# T6 sequence: LGPAIK
# T7: Pyr-A
# T7 sequence: A
# T8: Pyr-AAAVK
# T8 sequence: AAAVK
# T9: His6-NisA-GDVQAE, P13068
# T9 chain: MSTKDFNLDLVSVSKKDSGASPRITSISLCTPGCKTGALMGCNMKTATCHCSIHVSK
# B1: His6-CylA-27-412 (protein)
# chain: MGSSHHHHHHSQDPNSLSNNISFFIDNSQTTAIEEIESELSSEKVDYIQEIGLVSFKNLDDSDRKFIGKYFNVSEGKKLPDFKPEEVNSSILNINILNKDFKSFNWPYKKILSHIDPVKEQLGKDITIALIDSGIDRLHPNLQDNNLRLKNYVNDIELDEYGHGTQVAGVIDTIAPRVNLNSYKVMDGTDGNSINMLKAIVDATNDQVDIINVSLGSYKNMEIDDERFTVEAFRKVVNYARKNNILIVASAGNESRDISTGNEKHIPGGLESVITVGATKKSGDIADYSNYGSNVSIYGPAGGYGDNYKITGQIDAREMMMTYYPTSLVSPLGKAADFPDGYTLSFGTSLATPEVSAALAAIMSKNVDNSKDSNEVLNTLFENADSFIDKNSMLKYKEVRIK
# How the values were obtained:
# Pyr-AAIV = system: T1, Pyr-AAIV
# Pyr-AAI = system: T2, Pyr-AAI
# OBu-AGPAIR = system: T3, OBu-AGPAIR
# Pyr-AA = system: T4, Pyr-AA
# Pyr-APVLA = system: T5, Pyr-APVLA
# Pyr-LGPAIK = system: T6, Pyr-LGPAIK
# Pyr-A = system: T7, Pyr-A
# Pyr-AAAVK = system: T8, Pyr-AAAVK
# His6-NisA = His6-NisA (UniProt P13068)
# MBP-ElxP = MBP-ElxP activity assay by MALDI-TOF MS; type: biochemical, Staphylococcus epidermidis; conditions: non-cognate NisA and NisA mutants
# Protocol: A typical activity assay consisted of 50 mM Tris HCl pH 8.0, 50 μM peptide, 5 μM MBP-ElxP in a final volume of 100 μL. The sample was incubated for 2 h at room temperature. To monitor cleavage activity, samples were desalted using a zip tip concentrator (Millipore), mixed in a 1:1 ratio with sinapinic acid, and spotted on a MALDI-TOF Bruker plate. Ion intensities for the resulting precursor peptide, leader peptide and core peptide were normalized and the proteolytic efficiency was measure as the amount of substrate left after cleavage reaction (Table 1). Reactions were performed with tagged enzyme and substrates unless otherwise noticed.
# His6-NisA-GDVQAE, P13068 = target: T9, His6-NisA-GDVQAE, P13068
# [1] = target: NisA-I1C (with GDVQAE), P13068
# [2] = target: peptides with Glu or Lys in the P1′ position (after GDVQAE)
# [3] = target: HalM1-modified HalA1-GDVQAE
# [4] = target: His6-ProcA1.7 with GDVQAE inserted between the His6-tag sequence and ProcA1.7
# [5] = target: HalM2-modified HalA2-GDVQAE
# [6] = target: CylLS″ with a 5-amino acid N-terminal peptide
# [7] = target: ProcA1.7-T1C (with GDVQAE)
# [8] = target: CylLL″ with a 5-amino acid peptide remaining from the leader
molecule,measurement,setting,value
His6-ElxO,Relative (kcat/Km),Pyr-MAIVK,6.4
same,"kcat/Km (reduction by His6-ElxO, NADPH absorbance at 340 nm)",Pyr-MAIVK,15.5 M⁻¹ s⁻¹
same,Relative (kcat/Km),Pyr-AAIVA,0.55
same,"kcat/Km (reduction by His6-ElxO, NADPH absorbance at 340 nm)",Pyr-AAIVA,1.33 M⁻¹ s⁻¹
same,Relative (kcat/Km),Pyr-AAIV,0.47
same,"kcat/Km (reduction by His6-ElxO, NADPH absorbance at 340 nm)",Pyr-AAIV,1.13 M⁻¹ s⁻¹
same,Relative (kcat/Km),Pyr-DAIVK,0.12
same,"kcat/Km (reduction by His6-ElxO, NADPH absorbance at 340 nm)",Pyr-DAIVK,0.29 M⁻¹ s⁻¹
same,Relative (kcat/Km),Pyr-AAIVKBBIKAAKK,5.83
same,"kcat/Km (reduction by His6-ElxO, NADPH absorbance at 340 nm)",Pyr-AAIVKBBIKAAKK,14.2 M⁻¹ s⁻¹
same,Relative (kcat/Km),Pyr-RAIVK,2.26
same,"kcat/Km (reduction by His6-ElxO, NADPH absorbance at 340 nm)",Pyr-RAIVK,5.5 M⁻¹ s⁻¹
same,Relative (kcat/Km),Pyr-PAIVK,0.05
same,"kcat/Km (reduction by His6-ElxO, NADPH absorbance at 340 nm)",Pyr-PAIVK,0.13 M⁻¹ s⁻¹
same,Relative (kcat/Km),Pyr-AAI,0.02
same,"kcat/Km (reduction by His6-ElxO, NADPH absorbance at 340 nm)",Pyr-AAI,0.06 M⁻¹ s⁻¹
same,Relative (kcat/Km),Pyr-AAIVK,1
same,"kcat/Km (reduction by His6-ElxO, NADPH absorbance at 340 nm)",Pyr-AAIVK,2.43 M⁻¹ s⁻¹
same,"reduction by His6-ElxO with NADPH, LC-MS",OBu-AGPAIR,All the peptides were reduced as confirmed by LC-MS analysis
same,Relative (kcat/Km),Obu-AAIVK,0.38
same,"kcat/Km (reduction by His6-ElxO, NADPH absorbance at 340 nm)",Obu-AAIVK,0.92 M⁻¹ s⁻¹
same,Relative (kcat/Km),Pyr-NAIVK,3.13
same,"kcat/Km (reduction by His6-ElxO, NADPH absorbance at 340 nm)",Pyr-NAIVK,7.6 M⁻¹ s⁻¹
same,Relative (kcat/Km),Pyr-AA,< 0.01
same,"kcat/Km (reduction by His6-ElxO, NADPH absorbance at 340 nm)",Pyr-AA,< 0.03 M⁻¹ s⁻¹
same,Relative (kcat/Km),Obu-RAIVK,0.62
same,"kcat/Km (reduction by His6-ElxO, NADPH absorbance at 340 nm)",Obu-RAIVK,1.51 M⁻¹ s⁻¹
same,Relative (kcat/Km),Glx-AAIVK,< 0.01
same,"kcat/Km (reduction by His6-ElxO, NADPH absorbance at 340 nm)",Glx-AAIVK,< 0.03 M⁻¹ s⁻¹
same,Relative (kcat/Km),Pyr-AAIAK,0.65
same,"kcat/Km (reduction by His6-ElxO, NADPH absorbance at 340 nm)",Pyr-AAIAK,1.59 M⁻¹ s⁻¹
same,reduction by His6-ElxO with NADPH,Pyr-AAVLK,His6-ElxO reduced both peptides
same,"reduction by His6-ElxO with NADPH, LC-MS",Pyr-BPVLAAVAVAKKK,All the peptides were reduced as confirmed by LC-MS analysis
same,"reduction by His6-ElxO with NADPH, LC-MS",Pyr-APVLA,All the peptides were reduced as confirmed by LC-MS analysis
same,reduction by His6-ElxO with NADPH,Pyr-LGPAIK,His6-ElxO reduced both peptides
same,Relative (kcat/Km),Pyr-KAIVK,1.74
same,"kcat/Km (reduction by His6-ElxO, NADPH absorbance at 340 nm)",Pyr-KAIVK,4.22 M⁻¹ s⁻¹
same,Relative (kcat/Km),Pyr-A,< 0.01
same,"kcat/Km (reduction by His6-ElxO, NADPH absorbance at 340 nm)",Pyr-A,< 0.03 M⁻¹ s⁻¹
same,"reduction by His6-ElxO with NADPH, high-resolution LC-MS",lactocin S,confirming the formation of dihydrolactocin S
same,Relative (kcat/Km),Pyr-AAAVK,0.12
same,"kcat/Km (reduction by His6-ElxO, NADPH absorbance at 340 nm)",Pyr-AAAVK,0.29 M⁻¹ s⁻¹
MBP-ElxP,"MBP-ElxP cleavage result by MALDI-TOF MS (+++ complete, ++ partial, + marginal cleavage)",His6-ElxA Q-1A,+
same,fold reduction of the ElxP catalytic efficiency against wild type ElxA,His6-ElxA Q-1A,reduction of ˜14-fold in the ElxP catalytic efficiency
same,"MBP-ElxP cleavage result by MALDI-TOF MS (+++ complete, ++ partial, + marginal cleavage)",His6-ElxA D-5A,+
same,"cleavage by ElxP, MALDI-TOF MS",His6-NisA,ElxP does not cleave wild type NisA
same,"MBP-ElxP cleavage result by MALDI-TOF MS (+++ complete, ++ partial, + marginal cleavage)",His6-ElxA N-16A,+++
same,"MBP-ElxP cleavage result by MALDI-TOF MS (+++ complete, ++ partial, + marginal cleavage)",His6-ElxA P-2A,++
same,"efficiency of leader peptide removal (HPLC kinetics, FIG. 3D)",His6-ElxA P-2A,did not obviously decrease the efficiency of MBP-ElxP to remove the N-terminal leader peptide from ElxA
same,"MBP-ElxP cleavage result by MALDI-TOF MS (+++ complete, ++ partial, + marginal cleavage)",His6-ElxA wt,+++
same,"catalytic efficiency of cleavage (HPLC, leader peptide formation)",His6-ElxA wt,MBP-ElxP cleaved the wild type ElxA with an efficiency of ˜240 M-'s 1
same,"MBP-ElxP cleavage result by MALDI-TOF MS (+++ complete, ++ partial, + marginal cleavage)",His6-ElxA F-19A,++
same,"MBP-ElxP cleavage result by MALDI-TOF MS (+++ complete, ++ partial, + marginal cleavage)",His6-ElxA L-17A,+++
same,"MBP-ElxP cleavage result by MALDI-TOF MS (+++ complete, ++ partial, + marginal cleavage)",His6-ElxA N-3A,+++
same,"MBP-ElxP cleavage result by MALDI-TOF MS (+++ complete, ++ partial, + marginal cleavage)",His6-ElxA D-18A,+++
same,"MBP-ElxP cleavage result by MALDI-TOF MS (+++ complete, ++ partial, + marginal cleavage)",His6-ElxA L-4A,+
same,fold reduction of the ElxP catalytic efficiency against wild type ElxA,His6-ElxA L-4A,reduction of ˜14-fold in the ElxP catalytic efficiency
"wild type NisA: non-cognate lanthipeptide precursor peptide of nisin, His6-tagged (MSTKDFNLDLVSVSKKDSGASPRITSISLCTPGCKTGALMGCNMKTATCHCSIHVSK; cysteine pairing not given here; also: His6-tagged, tag position not given here)",cleavage by ElxP,MBP-ElxP,does not cleave
B1,"cleavage by CylA, MALDI-TOF MS",ProcA1.7-GDVQAE-T1G,"CylA specifically cleaved after Glu-1 for all three mutant peptides, albeit with a lower efficiency for the T-1G mutant"
same,"cleavage by CylA, MALDI-TOF MS","His6-NisA-GDVQAE, P13068",the leader peptides of both His6-ProcA1.7-GDVQAE and His6-NisA-GDVQAE were successfully removed
same,"cleavage by CylA, MS",modified CylLS,the enzyme also removed the entire leader peptides
same,"cleavage by CylA, MALDI-TOF MS",linear CylLL,it also removed the leader peptides from linear CylLL and CylLS
same,cleavage by CylA,[1],CylA cleanly removed the leader peptide from both substrates
same,cleavage by CylA,[2],it did not accept Glu or Lys in the P1′ position
same,"cleavage by CylA, MALDI-TOF MS",ProcA1.7-GDVQAE-T1F,CylA specifically cleaved after Glu-1 for all three mutant peptides
same,"cleavage by CylA, MALDI-TOF MS",[3],The modified peptide was successfully digested upon incubation with CylA
same,cleavage by CylA,[4],Incubation with CylA indeed resulted in cleavage and removal of the His6-tag sequence
same,"cleavage by CylA, MALDI-TOF MS",[5],the leader peptide was successfully removed
same,"cleavage by CylA, MALDI-TOF MS",His6-ProcA1.7-GDVQAE,the leader peptides of both His6-ProcA1.7-GDVQAE and His6-NisA-GDVQAE were successfully removed
same,"cleavage by CylA, MS",modified CylLL,the enzyme also removed the entire leader peptides
same,"cleavage by CylA, MALDI-TOF MS",ProcA1.7-GDVQAE-T1W,CylA specifically cleaved after Glu-1 for all three mutant peptides
same,"cleavage by CylA, MALDI-TOF MS",[6],the 5 amino acids were successfully removed
same,cleavage by CylA,[7],CylA cleanly removed the leader peptide from both substrates
same,"cleavage by CylA, MALDI-TOF MS",linear CylLS,it also removed the leader peptides from linear CylLL and CylLS
same,"cleavage by CylA, MALDI-TOF MS",[8],the 5 amino acids were successfully removed
